For this experiment, the target named is human CD40 on cells (human, UniProt P25942 21-277). Description: cell-based or functional assay.

B1: soluble human CD40L (ligand, UniProt P29965 113-261, looked up)
chain: MQKGDQNPQIAAHVISEASSKTTSVLQWAEKGYYTMSNNLVTLENGKQLTVKRQGLYYIYAQVTFCSNREASSQAPFIASLCLKSPGRFERILLRAANTHSSAKPCGQQSIHLGGVFELQPGASVFVNVTDPSQVSHGTGFTSFGLLKL
modifications: fluorescent label in the ligand binding assay of Table 7
As to B1, the “CD40L EC50, human B cell proliferation, no antibody” value came to 1.08 ng/mL; the “CD40L EC50, human B cell proliferation, with 1 ug/ml 4G7” value was determined as 1.04 ng/mL; the “CD40L EC50, human B cell proliferation, with 1 ug/ml 29H10” value is 0.715 ng/mL; the “CD40L EC50, human B cell proliferation, with 1 ug/ml 30A12” value turned out to be 0.81 ng/mL. Also, the “CD40L EC50, human B cell proliferation, with 1 ug/ml 33H6” value is 1.14 ng/mL; the “CD40L EC50, human B cell proliferation, with 1 ug/ml 35F11” value was 6.66 ng/mL; the “CD40L EC50, human B cell proliferation, with 1 ug/ml 36F3” value turned out to be 13 ng/mL; the “CD40L EC50, human B cell proliferation, with 1 ug/ml 37A6” value turned out to be 1.39 ng/mL. The “CD40L EC50, human B cell proliferation, with 1 ug/ml 39C2” value was 0.985 ng/mL.

These data come from patent US20260109776A1 (Amgen, published 2026).
